# Test results as given in publication PMC4888959 (Molecular microbiology, 2015).
# T1: CsrD^ΔHAMP (MBP-tagged CsrD residues 192–646) (E. coli, UniProt P13518 192-646)
# T1 sequence (looked up): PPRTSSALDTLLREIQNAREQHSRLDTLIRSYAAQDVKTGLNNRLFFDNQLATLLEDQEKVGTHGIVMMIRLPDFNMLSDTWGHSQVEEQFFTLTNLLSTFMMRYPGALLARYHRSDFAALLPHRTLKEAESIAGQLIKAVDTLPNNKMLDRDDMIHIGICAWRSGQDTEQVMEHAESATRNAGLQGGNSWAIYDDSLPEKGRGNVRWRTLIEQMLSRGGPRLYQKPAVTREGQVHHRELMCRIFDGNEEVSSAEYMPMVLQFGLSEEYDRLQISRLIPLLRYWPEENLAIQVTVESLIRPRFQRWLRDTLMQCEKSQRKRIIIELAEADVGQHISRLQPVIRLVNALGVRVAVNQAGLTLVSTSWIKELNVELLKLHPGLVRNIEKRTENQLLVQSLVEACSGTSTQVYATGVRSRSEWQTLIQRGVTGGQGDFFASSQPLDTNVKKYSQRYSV
# B1: EAL (MBP-tagged EAL domain of CsrD, residues 393–646) (domain or fragment, E. coli, UniProt P13518 393-646, looked up)
# chain: GRGNVRWRTLIEQMLSRGGPRLYQKPAVTREGQVHHRELMCRIFDGNEEVSSAEYMPMVLQFGLSEEYDRLQISRLIPLLRYWPEENLAIQVTVESLIRPRFQRWLRDTLMQCEKSQRKRIIIELAEADVGQHISRLQPVIRLVNALGVRVAVNQAGLTLVSTSWIKELNVELLKLHPGLVRNIEKRTENQLLVQSLVEACSGTSTQVYATGVRSRSEWQTLIQRGVTGGQGDFFASSQPLDTNVKKYSQRYSV
# B2: His-tagged EIIA^Glc (enzyme IIA^Glc of the glucose-specific PTS), unphosphorylated (natural protein, E. coli, UniProt P69783 1-169, looked up)
# chain: MGLFDKLKSLVSDDKKDTGTIEIIAPLSGEIVNIEDVPDVVFAEKIVGDGIAIKPTGNKMVAPVDGTIGKIFETNHAFSIESDSGVELFVHFGIDTVELKGEGFKRIAEEGQRVKVGDTVIEFDLPLLEEKAKSTLTPVVISNMDEIKELIKLSGSVTVGETPVIRIKK
# Tests used:
# [1] = biological target: the molecule itself; experiment: SEC
# [2] = biological target: B2; experiment: SEC
# [3] = biological target: B1; experiment: pull-down
# [4] = biological target: T1, CsrD^ΔHAMP (MBP-tagged CsrD residues …); experiment: pull-down
# [5] = biological target: B2; experiment: pull-down
binder,measurement,setting,value
"CsrD^ΔEAL (MBP-tagged CsrD residues 156–385) (domain or fragment, E. coli, UniProt P13518 156-385, looked up) RWLQRQLAGQELLETRATRILNGERGSNVLGTIYEWPPRTSSALDTLLREIQNAREQHSRLDTLIRSYAAQDVKTGLNNRLFFDNQLATLLEDQEKVGTHGIVMMIRLPDFNMLSDTWGHSQVEEQFFTLTNLLSTFMMRYPGALLARYHRSDFAALLPHRTLKEAESIAGQLIKAVDTLPNNKMLDRDDMIHIGICAWRSGQDTEQVMEHAESATRNAGLQGGNSWAIY",stoichiometry N,[1],4
B1,stoichiometry N,[2],1 EAL per EIIA^Glc
"CsrD^ΔTM (MBP-tagged CsrD residues 156–646, transmembrane domains replaced with MBP) (domain or fragment, E. coli, UniProt P13518 156-646, looked up) RWLQRQLAGQELLETRATRILNGERGSNVLGTIYEWPPRTSSALDTLLREIQNAREQHSRLDTLIRSYAAQDVKTGLNNRLFFDNQLATLLEDQEKVGTHGIVMMIRLPDFNMLSDTWGHSQVEEQFFTLTNLLSTFMMRYPGALLARYHRSDFAALLPHRTLKEAESIAGQLIKAVDTLPNNKMLDRDDMIHIGICAWRSGQDTEQVMEHAESATRNAGLQGGNSWAIYDDSLPEKGRGNVRWRTLIEQMLSRGGPRLYQKPAVTREGQVHHRELMCRIFDGNEEVSSAEYMPMVLQFGLSEEYDRLQISRLIPLLRYWPEENLAIQVTVESLIRPRFQRWLRDTLMQCEKSQRKRIIIELAEADVGQHISRLQPVIRLVNALGVRVAVNQAGLTLVSTSWIKELNVELLKLHPGLVRNIEKRTENQLLVQSLVEACSGTSTQVYATGVRSRSEWQTLIQRGVTGGQGDFFASSQPLDTNVKKYSQRYSV",stoichiometry N,[1],4
B2,binding result,[3],binds
same,binding result,[4],binds
"CsrD^ΔGGDEF (MBP-tagged CsrD residues 156–223 and 393–646) (domain or fragment, E. coli, UniProt P13518 156-223, looked up) RWLQRQLAGQELLETRATRILNGERGSNVLGTIYEWPPRTSSALDTLLREIQNAREQHSRLDTLIRSYGRGNVRWRTLIEQMLSRGGPRLYQKPAVTREGQVHHRELMCRIFDGNEEVSSAEYMPMVLQFGLSEEYDRLQISRLIPLLRYWPEENLAIQVTVESLIRPRFQRWLRDTLMQCEKSQRKRIIIELAEADVGQHISRLQPVIRLVNALGVRVAVNQAGLTLVSTSWIKELNVELLKLHPGLVRNIEKRTENQLLVQSLVEACSGTSTQVYATGVRSRSEWQTLIQRGVTGGQGDFFASSQPLDTNVKKYSQRYSV",binding result,[5],binds
same,stoichiometry N,[1],4
